Test [1] deals with GNB1 H266 peptide MTYS-X-DNII, X = 1-pTza (mammalian). The test can be described thus: synthetic peptide dot blot array.
Test [2] has as its target NME1 H118 peptide RNII-X-GSDS, X = 1-pTza (mammalian). The test can be described thus: synthetic peptide dot blot array.
In test [3] the target is ACLY-like H760 peptide AGAG-X-AGAG, X = 1-pTza (mammalian). The test is described as follows: synthetic peptide dot blot array.
Test [4] deals with Histone H4 H18 peptide GAKR-X-RKVL, X = 1-pTza (mammalian). The test is described as follows: synthetic peptide dot blot array.
For test [5], the target named is Histone H4 in lysates of FLAG-NME1 HEK 293 cells (human) (UniProt P62805). The test can be described thus: SILAC LC-MS/MS of mAb column eluate E2, FLAG-NME1 293 lysate, untreated over acid/heat-treated.
Test [6] addresses ACLY (ATP-citrate lyase) in mammalian cell lysates (human) (UniProt P53396). Described as above.
For test [7], the target named is YWHAB in lysates of FLAG-NME1 HEK 293 cells (human) (UniProt P31946). The test is described as above.
YWHAB in lysates of FLAG-NME1 HEK 293 cells (human), sequence (P31946 whole entry): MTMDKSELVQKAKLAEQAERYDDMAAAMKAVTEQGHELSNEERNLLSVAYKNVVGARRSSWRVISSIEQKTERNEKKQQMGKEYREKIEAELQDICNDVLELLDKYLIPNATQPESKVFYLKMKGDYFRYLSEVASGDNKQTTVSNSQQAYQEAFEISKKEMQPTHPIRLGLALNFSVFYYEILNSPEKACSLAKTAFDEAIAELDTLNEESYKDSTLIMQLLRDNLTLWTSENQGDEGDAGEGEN
Test [8] concerns the target PGAM, endogenous, in lysates of FLAG-NME1 HEK 293 cells (human) (UniProt P18669). The description is as above.
In test [9] the target is TCP1 in lysates of FLAG-NME1 HEK 293 cells (human) (UniProt P17987). Described as above.
TCP1 in lysates of FLAG-NME1 HEK 293 cells (human), sequence (P17987 whole entry): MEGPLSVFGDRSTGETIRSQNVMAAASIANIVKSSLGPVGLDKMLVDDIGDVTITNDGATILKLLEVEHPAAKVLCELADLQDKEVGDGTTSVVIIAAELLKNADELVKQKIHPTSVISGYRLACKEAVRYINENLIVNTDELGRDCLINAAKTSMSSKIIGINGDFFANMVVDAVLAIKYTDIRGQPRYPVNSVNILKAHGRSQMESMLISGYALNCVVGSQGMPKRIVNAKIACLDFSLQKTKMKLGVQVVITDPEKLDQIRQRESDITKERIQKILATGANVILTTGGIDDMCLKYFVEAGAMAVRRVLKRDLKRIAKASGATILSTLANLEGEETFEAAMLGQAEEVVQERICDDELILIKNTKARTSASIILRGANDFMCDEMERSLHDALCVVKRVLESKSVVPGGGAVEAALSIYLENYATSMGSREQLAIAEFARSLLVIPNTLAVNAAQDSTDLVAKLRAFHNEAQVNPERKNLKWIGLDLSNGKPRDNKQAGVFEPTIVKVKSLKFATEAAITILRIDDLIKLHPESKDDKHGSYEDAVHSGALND
In test [10] the target is NME1 in lysates of FLAG-NME1 HEK 293 cells (human) (UniProt P15531). Described as above.
NME1 in lysates of FLAG-NME1 HEK 293 cells (human), sequence (P15531 2-152 limits assumed): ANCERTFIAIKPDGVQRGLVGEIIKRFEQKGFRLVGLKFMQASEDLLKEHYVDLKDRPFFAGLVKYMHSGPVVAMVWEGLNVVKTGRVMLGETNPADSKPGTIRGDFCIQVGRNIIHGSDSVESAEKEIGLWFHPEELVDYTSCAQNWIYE
The target of test [11] is LDHA in lysates of FLAG-NME1 HEK 293 cells (human) (UniProt P00338). Described as above.
For test [12], the target named is RPS3A in lysates of FLAG-NME1 HEK 293 cells (human) (UniProt P61247). Described as above.
Test [13] addresses SCS (succinyl-CoA synthetase) in mammalian cell lysates (human) (UniProt P53597). The description is as above.
The target in test [14] is NME2 in lysates of FLAG-NME1 HEK 293 cells (human) (UniProt P22392). Described as above.
NME2 in lysates of FLAG-NME1 HEK 293 cells (human), sequence (P22392 whole entry): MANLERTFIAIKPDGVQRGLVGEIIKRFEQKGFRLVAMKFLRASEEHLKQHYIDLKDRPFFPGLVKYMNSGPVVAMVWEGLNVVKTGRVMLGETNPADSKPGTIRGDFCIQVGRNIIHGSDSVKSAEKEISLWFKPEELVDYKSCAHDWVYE
Test [15] concerns the target TUBB in lysates of FLAG-NME1 HEK 293 cells (human) (UniProt P07437). The description is as above.
The target of test [16] is GAPDH in lysates of FLAG-NME1 HEK 293 cells (human) (UniProt P04406). The description is as above.
GAPDH in lysates of FLAG-NME1 HEK 293 cells (human), sequence (P04406 2-335 limits assumed): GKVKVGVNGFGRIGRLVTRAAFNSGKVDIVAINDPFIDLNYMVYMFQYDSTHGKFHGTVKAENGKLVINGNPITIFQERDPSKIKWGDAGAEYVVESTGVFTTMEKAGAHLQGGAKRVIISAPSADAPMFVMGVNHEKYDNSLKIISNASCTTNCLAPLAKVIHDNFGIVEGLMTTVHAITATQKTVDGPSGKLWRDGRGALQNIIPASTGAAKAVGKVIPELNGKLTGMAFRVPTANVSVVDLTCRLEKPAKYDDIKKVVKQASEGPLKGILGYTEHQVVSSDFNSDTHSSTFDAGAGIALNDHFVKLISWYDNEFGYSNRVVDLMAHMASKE
The target in test [17] is Histone H4 in lysates of FLAG-NME1 HEK 293 cells (human) (UniProt P62805). The test can be described thus: SILAC LC-MS/MS of mAb column eluate E1, FLAG-NME1 293 lysate, untreated over acid/heat-treated.
Test [18] deals with ACLY (ATP-citrate lyase) in mammalian cell lysates (human) (UniProt P53396). Described as above.
ACLY (ATP-citrate lyase) in mammalian cell lysates (human), sequence (P53396 whole entry): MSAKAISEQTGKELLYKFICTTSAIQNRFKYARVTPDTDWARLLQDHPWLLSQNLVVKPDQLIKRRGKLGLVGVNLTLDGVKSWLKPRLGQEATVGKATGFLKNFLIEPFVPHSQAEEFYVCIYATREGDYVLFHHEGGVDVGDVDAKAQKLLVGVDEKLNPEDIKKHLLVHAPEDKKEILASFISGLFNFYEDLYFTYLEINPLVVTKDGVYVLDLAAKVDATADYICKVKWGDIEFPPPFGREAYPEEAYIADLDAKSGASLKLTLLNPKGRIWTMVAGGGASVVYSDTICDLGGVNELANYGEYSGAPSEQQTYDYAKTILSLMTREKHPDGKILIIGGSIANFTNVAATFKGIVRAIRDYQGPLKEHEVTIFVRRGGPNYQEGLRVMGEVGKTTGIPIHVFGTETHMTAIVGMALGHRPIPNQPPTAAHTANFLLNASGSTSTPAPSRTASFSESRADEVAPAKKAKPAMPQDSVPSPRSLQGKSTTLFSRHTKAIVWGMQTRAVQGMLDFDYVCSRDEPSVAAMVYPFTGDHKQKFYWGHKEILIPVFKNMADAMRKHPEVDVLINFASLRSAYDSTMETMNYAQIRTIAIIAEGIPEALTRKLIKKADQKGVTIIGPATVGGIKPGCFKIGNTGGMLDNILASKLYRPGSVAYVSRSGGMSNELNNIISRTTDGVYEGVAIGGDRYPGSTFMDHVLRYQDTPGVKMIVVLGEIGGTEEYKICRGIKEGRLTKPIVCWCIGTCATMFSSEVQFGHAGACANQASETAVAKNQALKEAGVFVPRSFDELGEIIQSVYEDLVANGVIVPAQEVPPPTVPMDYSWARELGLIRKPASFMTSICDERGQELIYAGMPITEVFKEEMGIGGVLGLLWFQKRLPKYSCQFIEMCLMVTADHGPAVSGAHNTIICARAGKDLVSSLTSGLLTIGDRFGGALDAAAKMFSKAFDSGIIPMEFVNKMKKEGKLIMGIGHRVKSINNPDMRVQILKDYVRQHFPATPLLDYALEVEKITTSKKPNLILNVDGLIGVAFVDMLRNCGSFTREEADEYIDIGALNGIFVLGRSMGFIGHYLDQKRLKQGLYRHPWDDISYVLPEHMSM
Test [19] concerns the target TCP1 in lysates of FLAG-NME1 HEK 293 cells (human) (UniProt P17987). The description is as above.
Test [20] deals with NME1 in lysates of FLAG-NME1 HEK 293 cells (human) (UniProt P15531). Described as above.
The target of test [21] is LDHA in lysates of FLAG-NME1 HEK 293 cells (human) (UniProt P00338). The description is as above.
In test [22] the target is RPS3A in lysates of FLAG-NME1 HEK 293 cells (human) (UniProt P61247). The description is as above.
The target of test [23] is NME2 in lysates of FLAG-NME1 HEK 293 cells (human) (UniProt P22392). The test is described as above.
Test [24] concerns the target TUBB in lysates of FLAG-NME1 HEK 293 cells (human) (UniProt P07437). The test is described as above.
Test [25] addresses GAPDH in lysates of FLAG-NME1 HEK 293 cells (human) (UniProt P04406). The test is described as above.
Test [26] concerns the target 506 proteins enriched by at least 2-fold in 3-pHis column elutions E1-E3. The test is described as follows: SILAC LC-MS/MS of mAb column eluates E1-E3, FLAG-NME1 293 lysate.
Test [27] concerns the target GNB1 in lysates of FLAG-NME1 HEK 293 cells (human, UniProt P62873 2-340, phosphohistidine, annotated site printed H226 in Table 1 (H266 elsewhere)). The test is described as follows: SILAC LC-MS/MS of mAb column eluate E2, FLAG-NME1 293 lysate, untreated over acid/heat-treated. How it is done: A dramatic decrease of pHis in the heavy lysates was confirmed by immunoblotting. Both lysates were neutralized, diluted (1:5 to 1 M urea, pH 8), mixed together and one half was passed over the 1-pHis mAb column while the other half was passed over the 3-pHis mAb column. LC-MS/MS analysis was performed on tryptic peptides derived from proteins that eluted off the columns at pH 11. A SILAC ratio (light/heavy) was calculated for each peptide to determine which proteins were enriched in the untreated, light vs. heavy lysates that had been treated to reduce pHis.
After crosslinking, pHis mAb resins (˜750 μl each) were packed in 10 ml chromatography columns (BioRad) and stored at 4° C. in or equilibrated with Wash/Binding Buffer (50 mM Tris, 30 mM sodium carbonate pH 8 (prepared by dilution of 100 mM sodium carbonate buffer pH 10 with H₂O and 1 M Tris pH 7)). Stable isotope labeling by amino acids in cell culture (SILAC) was performed on FLAG-NME1 293 cells which were metabolically labeled with Arg (¹³C₆/¹⁵N₄) and Lys (¹³C₆). These “heavy” labeled cells were used as an internal negative control for pHis mAb binding. Non-labeled, “light” FLAG-NME1 293 cells were cultured in parallel. For cell lysis, precautions were taken to preserve pHis and avoid salts and detergents that can interfere with downstream MS analysis. […]

The target in test [28] is YWHAB in lysates of FLAG-NME1 HEK 293 cells (human) (UniProt P31946). The test can be described thus: SILAC LC-MS/MS of mAb column eluate E1, FLAG-NME1 293 lysate, untreated over acid/heat-treated.
The target in test [29] is PGAM, endogenous, in lysates of FLAG-NME1 HEK 293 cells (human) (UniProt P18669). The test is described as above.
PGAM, endogenous, in lysates of FLAG-NME1 HEK 293 cells (human), sequence (P18669 2-254 limits assumed): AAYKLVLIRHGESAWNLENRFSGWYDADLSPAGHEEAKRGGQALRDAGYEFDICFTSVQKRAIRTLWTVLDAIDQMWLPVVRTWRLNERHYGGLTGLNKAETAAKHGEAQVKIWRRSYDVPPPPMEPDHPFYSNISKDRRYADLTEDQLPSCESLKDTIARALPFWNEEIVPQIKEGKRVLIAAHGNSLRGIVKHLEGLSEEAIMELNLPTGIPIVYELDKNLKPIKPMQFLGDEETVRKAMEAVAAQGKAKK

TUBB in lysates of FLAG-NME1 HEK 293 cells (human), sequence (P07437 whole entry): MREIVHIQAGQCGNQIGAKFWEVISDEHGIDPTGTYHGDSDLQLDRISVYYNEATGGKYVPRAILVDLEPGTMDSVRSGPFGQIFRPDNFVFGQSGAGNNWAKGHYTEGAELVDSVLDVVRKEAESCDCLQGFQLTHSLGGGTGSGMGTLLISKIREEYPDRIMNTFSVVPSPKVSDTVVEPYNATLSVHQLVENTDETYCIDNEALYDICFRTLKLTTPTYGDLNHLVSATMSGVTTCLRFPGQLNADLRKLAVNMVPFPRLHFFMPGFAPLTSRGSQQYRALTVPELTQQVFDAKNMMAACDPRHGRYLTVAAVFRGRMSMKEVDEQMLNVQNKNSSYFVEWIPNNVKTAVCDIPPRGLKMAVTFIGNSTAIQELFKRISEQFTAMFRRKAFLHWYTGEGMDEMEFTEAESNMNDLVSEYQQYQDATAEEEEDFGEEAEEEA
GNB1 in lysates of FLAG-NME1 HEK 293 cells, sequence (P62873 2-340 limits assumed): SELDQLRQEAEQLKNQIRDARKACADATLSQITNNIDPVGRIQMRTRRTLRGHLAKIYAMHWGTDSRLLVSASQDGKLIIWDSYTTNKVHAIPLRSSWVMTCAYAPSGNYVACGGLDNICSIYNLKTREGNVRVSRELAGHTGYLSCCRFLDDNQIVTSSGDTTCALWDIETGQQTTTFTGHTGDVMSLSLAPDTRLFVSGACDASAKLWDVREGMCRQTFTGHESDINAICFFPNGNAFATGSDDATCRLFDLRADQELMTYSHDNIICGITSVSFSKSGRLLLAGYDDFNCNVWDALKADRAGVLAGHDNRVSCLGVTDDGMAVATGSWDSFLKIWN
SCS (succinyl-CoA synthetase) in mammalian cell lysates (human), sequence (P53597 41-346): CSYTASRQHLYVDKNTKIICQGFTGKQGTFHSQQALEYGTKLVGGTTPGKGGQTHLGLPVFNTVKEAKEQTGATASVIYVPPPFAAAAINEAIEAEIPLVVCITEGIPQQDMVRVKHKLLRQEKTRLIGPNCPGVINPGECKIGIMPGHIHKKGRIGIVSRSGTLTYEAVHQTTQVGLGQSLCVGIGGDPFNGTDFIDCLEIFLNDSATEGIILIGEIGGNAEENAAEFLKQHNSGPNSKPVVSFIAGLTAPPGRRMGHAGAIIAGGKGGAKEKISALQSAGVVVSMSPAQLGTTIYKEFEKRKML

For the molecule anti-1-pHis mAb SC1-1 (antibody), the least amount detected in test [1], in test [2], in [3] and in test [4] was 20 ng throughout. In addition, the SILAC ratio (light/heavy) in test [5] is 9.8 fold; in test [6], 7.2 fold; in test [7], 2.04 fold; in test [8], 4.25 fold; in test [9] it was 5.99 fold; in test [10] it was 51.9 fold. For the same molecule, the SILAC ratio (light/heavy) in test [11] came to 6.5 fold; in test [12], 9.1 fold; in test [13], 1.68 fold; in test [14], 56 fold; in test [15], 4.49 fold; in test [16], 4.45 fold. Further, the SILAC ratio (light/heavy) in [17] is 19.1 fold; in test [18], 5.29 fold; in test [19], 6.1 fold; in [20], 15.1 fold; in [21], 4.18 fold; in [22], 7.21 fold. The SILAC ratio (light/heavy) in test [23] stood at 15.6 fold; in [24] it was 3.55 fold; in test [25] it was 3.4 fold.

Take anti-1-pHis mAb SC50-3 (antibody): the least amount detected in [1], in test [2], in test [3] and in test [4] was 20 ng in each case.

B1: anti-3-pHis mAb SC39-4 (antibody, V domains shown, not shown: a dimerising Fc or GST)
VH: ESGGRLVTPGGSLTLTCTVSGFSLSRYNMGWVRQAPGKGLEWIGWIPFRGSLKYATWATGRFTISRTSTTVDLRMTGLTAADTATYFCVRSSDGFDLWGPGTLVTVSS
VL: QFVMTQTPASVEAVVGGTVTIKCQASRDTGDGLIWYQQKPGQPPKRLIYKASTVASGVPSRFKGRGSGTDFTLTISDLECADAATYYCHSNFYNRWTYGNAFGGGTEVVVKG
notes: Rabbit hybridoma monoclonal IgG, used as whole IgG (free or crosslinked to protein-A agarose)
Take B1: the fold enrichment (SILAC ratio light/heavy) in test [26] was greater than 2 fold. For the same molecule, the “SILAC ratio (light/heavy)” value is 1.21 fold in [27]; 17.9 fold in [5]; 2.99 fold in test [6]; 1.63 fold in [7]; 2.44 fold in test [8]; 3.2 fold in test [9]. The SILAC ratio (light/heavy) in [10] was found to be 2.14 fold; in test [11] it was 3.08 fold; in test [12] it was 4.98 fold; in [15], 2.09 fold; in test [16], 3.32 fold; in test [17], 22.8 fold. Besides, the SILAC ratio (light/heavy) in test [18] worked out at 11.6 fold; in test [28], 7.43 fold; in test [29], 4.01 fold; in test [19], 5.98 fold; in [20] it was 118 fold; in [21], 6.6 fold. The SILAC ratio (light/heavy) in test [22] was 10.4 fold; in test [23], 3.46 fold; in test [24], 4.33 fold; in test [25] it was 4.76 fold.

The record behind these values is patent publication US20160033516A1 (SALK INSTITUTE FOR BIOLOGICAL STUDIES, published 2016).
